Test results taken from paper doi:10.1101/2024.12.23.630205 (bioRxiv, 2024).
“And” between values parts separate entries of the source, which are not always exact repeats. Equal entries are not always repeated. Values belong to the binder of their own block, whether it stands above or below them.

B1: GST-TULP3 (60-442 aa, construct-2) (domain or fragment, human, UniProt O75386 60-442, looked up)
chain: AKPRASDEQTPLVNCHTPHSNVILHGIDGPAAVLKPDEVHAPSVSSSVVEEDAENTVDTASKPGLQERLQKHDISESVNFDEETDGISQSACLERPNSASSQNSTDTGTSGSATAAQPADNLLGDIDDLEDFVYSPAPQGVTVRCRIIRDKRGMDRGLFPTYYMYLEKEENQKIFLLAARKRKKSKTANYLISIDPVDLSREGESYVGKLRSNLMGTKFTVYDRGICPMKGRGLVGAAHTRQELAAISYETNVLGFKGPRKMSVIIPGMTLNHKQIPYQPQNNHDSLLSRWQNRTMENLVELHNKAPVWNSDTQSYVLNFRGRVTQASVKNFQIVHKNDPDYIVMQFGRVADDVFTLDYNYPLCAVQAFGIGLSSFDSKLACE
B3: hSIRT2 (36-356 aa), purified, thrombin-digested (domain or fragment, human, UniProt Q8IXJ6 36-356, looked up)
chain: ADMDFLRNLFSQTLSLGSQKERLLDELTLEGVARYMQSERCRRVICLVGAGISTSAGIPDFRSPSTGLYDNLEKYHLPYPEAIFEISYFKKHPEPFFALAKELYPGQFKPTICHYFMRLLKDKGLLLRCYTQNIDTLERIAGLEQEDLVEAHGTFYTSHCVSASCRHEYPLSWMKEKIFSEVTPKCEDCQSLVKPDIVFFGESLPARFFSCMQSDFLKVDLLLVMGTSLQVQPFASLISKAPLSTPRLLINKEKAGQSDPFLGMIMGLGGGMDFDSKKAYRDVAWLGECDQGCLALAELLGWKKELEDLVRREHASIDAQS

Columns and labels:
[1] = target: T1, hSIRT1 (114-510 aa), purified, thrombin-digested (human, UniProt Q96EB6 114-510, NT-647 fluorescent dye (in the MST only)); assay: SPR
T1 sequence (looked up): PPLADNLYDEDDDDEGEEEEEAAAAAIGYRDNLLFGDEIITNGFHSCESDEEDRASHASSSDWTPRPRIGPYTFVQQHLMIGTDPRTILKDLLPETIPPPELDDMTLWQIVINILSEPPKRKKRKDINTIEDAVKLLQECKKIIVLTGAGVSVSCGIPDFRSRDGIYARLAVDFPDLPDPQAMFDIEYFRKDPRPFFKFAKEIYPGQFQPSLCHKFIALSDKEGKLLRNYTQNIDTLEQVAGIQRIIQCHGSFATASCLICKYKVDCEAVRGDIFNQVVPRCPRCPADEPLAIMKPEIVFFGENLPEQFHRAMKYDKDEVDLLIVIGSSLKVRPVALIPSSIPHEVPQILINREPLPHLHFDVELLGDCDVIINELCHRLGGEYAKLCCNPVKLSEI

native gel or EMSA = target: the molecule itself; assay: native gel or EMSA
[2] = target: B1; assay: SPR
[3] = target: T1, hSIRT1 (114-510 aa), purified, …; assay: MST
SEC = target: the molecule itself; assay: SEC
[4] = target: B3; assay: SPR

Binder: B1
Kd [1]: 8.1 µM

B2: deleted hTULP3 (60-442 aa, construct-2), GST tag removed (domain or fragment, human, UniProt O75386 60-442, looked up)
chain: AKPRASDEQTPLVNCHTPHSNVILHGIDGPAAVLKPDEVHAPSVSSSVVEEDAENTVDTASKPGLQERLQKHDISESVNFDEETDGISQSACLERPNSASSQNSTDTGTSGSATAAQPADNLLGDIDDLEDFVYSPAPQGVTVRCRIIRDKRGMDRGLFPTYYMYLEKEENQKIFLLAARKRKKSKTANYLISIDPVDLSREGESYVGKLRSNLMGTKFTVYDRGICPMKGRGLVGAAHTRQELAAISYETNVLGFKGPRKMSVIIPGMTLNHKQIPYQPQNNHDSLLSRWQNRTMENLVELHNKAPVWNSDTQSYVLNFRGRVTQASVKNFQIVHKNDPDYIVMQFGRVADDVFTLDYNYPLCAVQAFGIGLSSFDSKLACE
stoichiometry N (native gel or EMSA): 2

Binder: B3
Kd [2]: 66.7 µM and 66.5 µM

Kd [3]: 28 µM
B4: N-terminal hTULP3 (1-148 aa, construct-1), GST tag removed (domain or fragment, human, UniProt O75386 1-148, looked up)
chain: MEASRCRLSPSGDSVFHEEMMKMRQAKLDYQRLLLEKRQRKKRLEPFMVQPNPEARLRRAKPRASDEQTPLVNCHTPHSNVILHGIDGPAAVLKPDEVHAPSVSSSVVEEDAENTVDTASKPGLQERLQKHDISESVNFDEETDGISQ
stoichiometry N (SEC): 2

binding result [4]: binds
B5: GST-tagged N-terminal hTULP3 (1-148 aa, construct-1) (domain or fragment, human, UniProt O75386 1-148, looked up)
chain: MEASRCRLSPSGDSVFHEEMMKMRQAKLDYQRLLLEKRQRKKRLEPFMVQPNPEARLRRAKPRASDEQTPLVNCHTPHSNVILHGIDGPAAVLKPDEVHAPSVSSSVVEEDAENTVDTASKPGLQERLQKHDISESVNFDEETDGISQ
